Data: publication PMC5777261 (The Journal of Biological Chemistry, 2017)

Legend:
Assay in all cases: radioligand binding; HEK293 cells expressing ACKR3-YFP or mutants, pretreated 5 min at 37 °C with 100 μM phenylarsine oxide; 50 pM 125I-CXCL12 tracer in 50 mM HEPES pH 7.4, 5 mM MgCl2, 1 mM CaCl2, 0.2% BSA, with or without unlabeled CXCL12 or CXCL11, 30 min at 37 °C; bound label counted in a γ counter; IC50 taken as proxy for ligand affinity
Details in all cases: one partner purified
ACKR3 Y143A-YFP = biological target: T1, ACKR3 Y143A-YFP (UniProt P25106 1-362, Y143A)
T1 construct: ACKR3 (CXCR7) with Y143A (Ballesteros-Weinstein 3.51), made by PCR in ACKR3-YFP; also called Y143^3.51A; source: HEK293, transiently transfected (polyethyleneimine), on or in cells; not shown: YFP, C-terminal, kept
T1 sequence (P25106 whole entry Y143A): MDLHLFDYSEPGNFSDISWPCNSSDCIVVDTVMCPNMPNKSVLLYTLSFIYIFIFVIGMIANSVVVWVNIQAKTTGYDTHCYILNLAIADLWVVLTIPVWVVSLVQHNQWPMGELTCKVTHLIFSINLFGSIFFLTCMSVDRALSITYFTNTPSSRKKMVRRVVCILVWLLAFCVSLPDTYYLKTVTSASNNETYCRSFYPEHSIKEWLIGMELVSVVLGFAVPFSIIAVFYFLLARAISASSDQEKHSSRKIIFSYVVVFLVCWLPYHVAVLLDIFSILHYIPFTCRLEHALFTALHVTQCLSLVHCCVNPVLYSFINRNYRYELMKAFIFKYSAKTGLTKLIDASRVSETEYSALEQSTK

ACKR3 N127D-YFP = biological target: T2, ACKR3 N127D-YFP (UniProt P25106 1-362, N127D)
T2 construct: ACKR3 (CXCR7) with N127D (Ballesteros-Weinstein 3.35), made by PCR in ACKR3-YFP; also called N127^3.35D; source: HEK293, transiently transfected (polyethyleneimine), on or in cells; not shown: YFP, C-terminal, kept
T2 sequence (P25106 whole entry N127D): as the sequence (P25106 whole entry Y143A) above, with N127D, A143Y counted along it

ACKR3 D141N-YFP = biological target: T3, ACKR3 D141N-YFP (UniProt P25106 1-362, D141N)
T3 construct: ACKR3 (CXCR7) with D141N (Ballesteros-Weinstein 3.49), made by PCR in ACKR3-YFP; also called D141^3.49N; source: HEK293, transiently transfected (polyethyleneimine), on or in cells; not shown: YFP, C-terminal, kept
T3 sequence (P25106 whole entry D141N): as the sequence (P25106 whole entry Y143A) above, with D141N, A143Y counted along it

ACKR3 R142A-YFP = biological target: T4, ACKR3 R142A-YFP (UniProt P25106 1-362, R142A)
T4 construct: ACKR3 (CXCR7) with R142A (Ballesteros-Weinstein 3.50), made by PCR in ACKR3-YFP; also called R142^3.50A; ACKR3 R142^3.50A; source: HEK293, transiently transfected (polyethyleneimine), on or in cells; not shown: YFP, C-terminal, kept
T4 sequence (P25106 whole entry R142A): as the sequence (P25106 whole entry Y143A) above, with R142A, A143Y counted along it

ACKR3 Y315A-YFP = biological target: T5, ACKR3 Y315A-YFP (UniProt P25106 1-362, Y315A)
T5 construct: ACKR3 (CXCR7) with Y315A (Ballesteros-Weinstein 7.53), made by PCR in ACKR3-YFP; also called Y315^7.53A; source: HEK293, transiently transfected (polyethyleneimine), on or in cells; not shown: YFP, C-terminal, kept
T5 sequence (P25106 whole entry Y315A): as the sequence (P25106 whole entry Y143A) above, with A143Y, Y315A counted along it

[1] = biological target: T6, ACKR3-YFP (wildtype ACKR3 fused C-terminally to YFP) (UniProt P25106 1-362)
T6 construct: atypical chemokine receptor 3 (ACKR3, also known as CXCR7); also called CXCR7; receptor-YFP fusion; source: HEK293, transiently transfected (polyethyleneimine), on or in cells; not shown: YFP, C-terminal, kept
T6 sequence (P25106 whole entry, the tested form may be a part): as the sequence (P25106 whole entry Y143A) above, with A143Y counted along it

ACKR3 N127S-YFP = biological target: T7, ACKR3 N127S-YFP (UniProt P25106 1-362, N127S)
T7 construct: ACKR3 (CXCR7) with N127S (Ballesteros-Weinstein 3.35), made by PCR in ACKR3-YFP; also called N127^3.35S; source: HEK293, transiently transfected (polyethyleneimine), on or in cells; not shown: YFP, C-terminal, kept
T7 sequence (P25106 whole entry N127S): as the sequence (P25106 whole entry Y143A) above, with N127S, A143Y counted along it

ACKR3 D90N-YFP = biological target: T8, ACKR3 D90N-YFP (UniProt P25106 1-362, D90N)
T8 construct: ACKR3 (CXCR7) with D90N (Ballesteros-Weinstein 2.50), made by PCR in ACKR3-YFP; also called D90^2.50N; source: HEK293, transiently transfected (polyethyleneimine), on or in cells; not shown: YFP, C-terminal, kept
T8 sequence (P25106 whole entry D90N): as the sequence (P25106 whole entry Y143A) above, with D90N, A143Y counted along it

ACKR3 N127K-YFP = biological target: T9, ACKR3 N127K-YFP (UniProt P25106 1-362, N127K)
T9 construct: ACKR3 (CXCR7) with N127K (Ballesteros-Weinstein 3.35), made by PCR in ACKR3-YFP; also called N127^3.35K; source: HEK293, transiently transfected (polyethyleneimine), on or in cells; not shown: YFP, C-terminal, kept
T9 sequence (P25106 whole entry N127K): as the sequence (P25106 whole entry Y143A) above, with N127K, A143Y counted along it

IC50 (ACKR3 Y143A-YFP): 15.4 nM | Log IC50 (ACKR3 Y143A-YFP): -7.8 | IC50 (ACKR3 N127D-YFP): 6.6 nM | Log IC50 (ACKR3 N127D-YFP): -8 | IC50 (ACKR3 D141N-YFP): 4.8 nM | Log IC50 (ACKR3 D141N-YFP): -8.3 | IC50 (ACKR3 R142A-YFP): 44.8 nM | Log IC50 (ACKR3 R142A-YFP): -7.4 | IC50 (ACKR3 Y315A-YFP): 19.1 nM | Log IC50 (ACKR3 Y315A-YFP): -7.7 | IC50 [1]: 39.1 nM | Log IC50 [1]: -7.4 | IC50 (ACKR3 N127S-YFP): 3.7 nM | Log IC50 (ACKR3 N127S-YFP): -8.5 | IC50 (ACKR3 D90N-YFP): 35.9 nM | Log IC50 (ACKR3 D90N-YFP): -7.5 | IC50 (ACKR3 N127K-YFP): 11 nM | Log IC50 (ACKR3 N127K-YFP): -7.9
B1: CXCL11 (unlabeled recombinant chemokine) (ligand, human, UniProt O14625 22-94, looked up)
chain: FPMFKRGRCLCIGPGVKAVKVADIEKASIMYPSNNCDKIEVIITLKENKGQRCLNPKSKQARLIIKKVERKNF
notes: chemokine CXCL11 (I-TAC); called human CXCL11 in the text on scavenging by MEFs; also called I-TAC; unlabeled CXCL11; source: recombinant; gift from Amanda Nevins and Brian Volkman or from PeproTech Inc
